# Source: article doi:10.64898/2025.12.11.693838 (bioRxiv, 2025)
# B1: Staphylococcal atypical 2-Cys peroxiredoxin / thiol peroxidase, wild type (WT-SaTpx) (enzyme, UniProt Q2FXL3 1-164, looked up)
# chain: MTEITFKGGPIHLKGQQINEGDFAPDFTVLDNDLNQVTLADYAGKKKLISVVPSIDTGVCDQQTRKFNSDASKEEGIVLTISADLPFAQKRWCASAGLDNVITLSDHRDLSFGENYGVVMEELRLLARAVFVLDADNKVVYKEIVSEGTDFPDFDAALAAYKNI
# B2: N-terminal β-flap deletion mutant of SaTpx (NΔ15-SaTpx) (domain or fragment, UniProt Q2FXL3 16-164, looked up)
# chain: QQINEGDFAPDFTVLDNDLNQVTLADYAGKKKLISVVPSIDTGVCDQQTRKFNSDASKEEGIVLTISADLPFAQKRWCASAGLDNVITLSDHRDLSFGENYGVVMEELRLLARAVFVLDADNKVVYKEIVSEGTDFPDFDAALAAYKNI
# Target: the molecule itself
# Experiment: crystal structure
row,Protein,stoichiometry N
1,B1,2
2,B2,2
